Test results taken from article PMC8395645.

Target: FGFR2b Ig-like domains 2-3 (UniProt P21802-3 140-369)
Assay: ITC

Binder: TGTTGGGAGGGGATGGGACGTATAGGTAAGGGCGGGGGTGGACACG (structured_DNA) [Apt_46]
- Kd: 46.3 ± 16.2 nM
